# From paper PMC4409664 (Cell, 2015)
# B1: STRA6 (stimulated by retinoic acid 6) membrane receptor with a myc tag (STRA6^myc) (receptor, UniProt Q9BX79 1-667, looked up)
# chain: MSSQPAGNQTSPGATEDYSYGSWYIDEPQGGEELQPEGEVPSCHTSIPPGLYHACLASLSILVLLLLAMLVRRRQLWPDCVRGRPGLPSPVDFLAGDRPRAVPAAVFMVLLSSLCLLLPDEDALPFLTLASAPSQDGKTEAPRGAWKILGLFYYAALYYPLAACATAGHTAAHLLGSTLSWAHLGVQVWQRAECPQVPKIYKYYSLLASLPLLLGLGFLSLWYPVQLVRSFSRRTGAGSKGLQSSYSEEYLRNLLCRKKLGSSYHTSKHGFLSWARVCLRHCIYTPQPGFHLPLKLVLSATLTGTAIYQVALLLLVGVVPTIQKVRAGVTTDVSYLLAGFGIVLSEDKQEVVELVKHHLWALEVCYISALVLSCLLTFLVLMRSLVTHRTNLRALHRGAALDLSPLHRSPHPSRQAIFCWMSFSAYQTAFICLGLLVQQIIFFLGTTALAFLVLMPVLHGRNLLLFRSLESSWPFWLTLALAVILQNMAAHWVFLETHDGHPQLTNRRVLYAATFLLFPLNVLVGAMVATWRVLLSALYNAIHLGQMDLSLLPPRAATLDPGYYTYRNFLKIEVSQSHPAMTAFCSLLLQAQSLLPRTMAAPQDSLRPGEEDEGMQLLQTKDSMAKGARPGASRGRARWGLAYTLLHNPTLQVFRKTALLGANGAQP
# Target: wild-type human serum retinol binding protein with an N-terminal hemagglutinin tag (RBP^HA WT) (human, UniProt P02753 19-201)
# Test: ELISA
binder,measurement,value
B1,Kd,59 nM
